Measured values taken from patent US20220290162.

Biological target: Bxb1 serine integrase with ssrA degradation tag (Mycobacteriophage Bxb1?) (UniProt Q9B086)
Experiment: cell_activity
Settings: attB x attP inversion of P7 promoter, switched cells 42 C vs 37 C; E. coli Nissle

Sequence	activity
GGGTTTGTACCGTACACCACTGAGACCGCGGTGGTTGACCAGACAAACCACGA (double strand) [Bxb1 attP]	> 100 fold
TCGGCCGGCTTGTCGACGACGGCGGTCTCCGTCGTCAGGATCATCCGGGC (double strand) [Bxb1 attB]	> 100 fold
